Structures are written as SMILES.

How the values of series [1] were obtained: The peptide stearoyl-[K(DOTA[^68Ga])]3-[…] (SEQ ID NO:15)-amide was dissolved in citrate buffer (pH 8.0)+4% BSA and injected i.v. in the tail vene of tumour bearing WAG/Rij rats. The rats were orthopically injected with 1×10^6 syngenic colon carcinoma cells (CC531 cells) 10 days prior to the measurements. At the day of measurement the rats received the peptide in a concentration of 400 nmol/kg body weight. During the experiments the rats were anaesthetised by isoflurane and kept at 37° C.

In series [2] the test system is primary mouse hepatocytes. As to the method: Next it was analyzed if the modified doxorubicin is still cytotoxic to cells. In this experiment primary mouse hepatocytes isolated from C57BL/6 mice as described in Galle et al., (1994) (37) were incubated and reseeded in 96 well flat bottom plates to form a confluent cell layer. […] The cells were then incubated for 12 h (FIG. 6A) or 24 h (FIG. 6B), respectively. After incubation an MTT assay (Cell proliferation Kit, Roche Mannheim Germany) was performed as indicated by the manufacturer's instructions to determine remaining cell viability. The results are shown in FIGS. 6A and 6B (Cell Viability Assay).

Regarding `CCCCCCCCCCCCCCCCCC(=O)N[C@@H](CCCCNC(=O)CN1CCN(CC(=O)O)CCN(CC(=O)O)CCN(CC(=O)O)CC1)C(=O)N[C@@H](CCCCNC(=O)CN1CCN(CC(=O)O)CCN(CC(=O)O)CCN(CC(=O)O)CC1)C(=O)N[C@@H](CCCCNC(=O)CN1CCN(CC(=O)O)CCN(CC(=O)O)CCN(CC(=O)O)CC1)C(=O)N[C@@H](CC(N)=O)C(=O)N[C@@H](CC(C)C)C(=O)N[C@@H](CO)C(=O)N[C@H](C(=O)N[C@@H](CO)C(=O)N[C@@H](CC(N)=O)C(=O)N1CCC[C@H]1C(=O)N[C@@H](CC(C)C)C(=O)NCC(=O)N[C@@H](Cc1ccccc1)C(=O)N[C@@H](Cc1ccccc1)C(=O)N1CCC[C@H]1C(=O)N[C@@H](CC(=O)O)C(=O)N[C@@H](Cc1c[nH]cn1)C(=O)N[C@@H](CCC(N)=O)C(=O)N[C@@H](CC(C)C)C(=O)N[C@@H](CC(=O)O)C(=O)N1CCC[C@H]1C(N)=O)[C@@H](C)O`, in series [1] (400 nmol/kg i.v., WAG/Rji rat, five minutes post i.v. injection (FIG. 4A)), the “enrichment in the liver (PET)” value is “Specific enrichment”. In series [1] (tumour bearing rat (CC531 colon carcinoma), FIG. 4C), the “specificity of staining, liver tissue vs tumor tissue (merged PET images)” value is “staining only liver tissue but not the tumor tissue”.
`COc1cccc2c1C(=O)c1c(O)c3c(c(O)c1C2=O)C[C@@](O)(C(=O)CO)C[C@@H]3O[C@H]1C[C@H](N)[C@H](O)[C@H](C)O1` [doxorubicin]: the cytotoxic activity result with HepG2 cells is given as “significant cytotoxicity”. In series [2], the cytotoxic effects result is recorded as “significant cytotoxic effects”.

Values taken from patent US10513539B2, “Hydrophobic modified peptides and their use for liver specific targeting” (Ruprecht-Karls-Universitat Heidelberg, priority 2011, dated 2019).
